Measured values published in PMC8734478 (Science (New York, N.Y.), 2021).
Ends that are not written are not given here. * marks the point of attachment. Palmitoyl = CCCCCCCCCCCCCCCC(=O)*

Biological target: human Hedgehog acyltransferase (HHAT) (human, UniProt Q5VTY9 1-493)
Test: cryo-EM structure

Sequence of human Hedgehog acyltransferase (HHAT) (Q5VTY9 whole entry): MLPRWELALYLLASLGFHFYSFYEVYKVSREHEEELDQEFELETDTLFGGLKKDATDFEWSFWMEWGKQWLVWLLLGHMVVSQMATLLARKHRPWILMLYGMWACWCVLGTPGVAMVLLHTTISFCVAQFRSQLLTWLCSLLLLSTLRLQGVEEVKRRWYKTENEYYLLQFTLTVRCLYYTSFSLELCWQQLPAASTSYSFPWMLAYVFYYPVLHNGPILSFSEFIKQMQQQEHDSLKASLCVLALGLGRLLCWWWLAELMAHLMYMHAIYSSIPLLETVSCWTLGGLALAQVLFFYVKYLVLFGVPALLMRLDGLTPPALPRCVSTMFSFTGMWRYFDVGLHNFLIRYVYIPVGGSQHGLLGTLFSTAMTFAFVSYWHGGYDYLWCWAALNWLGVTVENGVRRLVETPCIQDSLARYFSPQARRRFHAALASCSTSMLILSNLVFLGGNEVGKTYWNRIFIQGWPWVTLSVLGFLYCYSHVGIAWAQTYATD

- binding result: binds
Binder: Palmitoyl-CGPGRGFGKRRH (peptide, UniProt Q15465 24-35, looked up)
